# According to article PMC4797271, “The quorum-sensing regulator ComA from Bacillus subtilis activates transcription using topologically distinct DNA motifs”:
# Where a chain is given by its changes, count along the chain named. Names may count otherwise.
# T1: ComA (Bacillus subtilis, UniProt P14204 1-214)
# T1 sequence: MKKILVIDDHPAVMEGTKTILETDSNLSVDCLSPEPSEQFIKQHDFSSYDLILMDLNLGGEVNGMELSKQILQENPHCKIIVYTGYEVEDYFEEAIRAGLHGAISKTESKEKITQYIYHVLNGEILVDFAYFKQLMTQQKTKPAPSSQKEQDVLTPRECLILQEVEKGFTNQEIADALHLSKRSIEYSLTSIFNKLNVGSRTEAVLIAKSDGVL
# T2: ComA;RNA polymerase alpha subunit (Bacillus subtilis;Bacillus subtilis, UniProt P14204;P20429 1-214;1-314, |)
# T2 sequence 1: T1 sequence
# T2 sequence 2: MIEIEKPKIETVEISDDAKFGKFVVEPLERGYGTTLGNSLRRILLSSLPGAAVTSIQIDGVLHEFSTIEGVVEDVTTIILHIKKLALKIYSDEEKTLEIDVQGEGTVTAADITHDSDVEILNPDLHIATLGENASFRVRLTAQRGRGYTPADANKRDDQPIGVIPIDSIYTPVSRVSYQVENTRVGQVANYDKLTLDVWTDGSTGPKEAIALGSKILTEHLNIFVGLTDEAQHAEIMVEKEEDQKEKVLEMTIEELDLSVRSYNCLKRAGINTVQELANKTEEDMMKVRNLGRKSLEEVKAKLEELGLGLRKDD
# B1: PIR n8 (dsDNA)
# DNA 1: ATGTTTAGTGGAAATGATTGCGGCATCTCCACCGCAAAAAATATTGCTGTAAAT
# DNA 2: ATTTACAGCAATATTTTTTGCGGTGGAGATGCCGCAATCATTTCCACTAAACAT
# B2: PIR n6 (dsDNA)
# DNA 1: ATGTTTAGTGGAAATGATTGCGGCATCTCCCGCAAAAAATATTGCTGTAAAT
# DNA 2: ATTTACAGCAATATTTTTTGCGGGAGATGCCGCAATCATTTCCACTAAACAT
# B3: PIR n2 (dsDNA)
# DNA 1: ATGTTTAGTGGAAATGATTGCGGCACCGCAAAAAATATTGCTGTAAAT
# DNA 2: ATTTACAGCAATATTTTTTGCGGTGCCGCAATCATTTCCACTAAACAT
# B4: PIR n3 (dsDNA)
# DNA 1: ATGTTTAGTGGAAATGATTGCGGCATCCGCAAAAAATATTGCTGTAAAT
# DNA 2: ATTTACAGCAATATTTTTTGCGGATGCCGCAATCATTTCCACTAAACAT
# B5: PDR n2 (dsDNA)
# DNA 1: AAACTGGAATCGAAACTTTGCGGCCTTGCGGTGATAAAAACATTTTT
# DNA 2: AAAAATGTTTTTATCACCGCAAGGCCGCAAAGTTTCGATTCCAGTTT
# B6: Ppel DR3 only (dsDNA)
# DNA 1: CGGCCGGTTTTTTTTTGGCTGTTCTTTGCGGTGGGATTTTGCAGAAT
# DNA 2: ATTCTGCAAAATCCCACCGCAAAGAACAGCCAAAAAAAAACCGGCCG
# B7: PDR n7 (dsDNA)
# DNA 1: AAACTGGAATCGAAACTTTGCGGCCATTACTTGCGGTGATAAAAACATTTTT
# DNA 2: AAAAATGTTTTTATCACCGCAAGTAATGGCCGCAAAGTTTCGATTCCAGTTT
# B8: PDR n10 (dsDNA)
# DNA 1: AAACTGGAATCGAAACTTTGCGGCCATTACCATTTGCGGTGATAAAAACATTTTT
# DNA 2: AAAAATGTTTTTATCACCGCAAATGGTAATGGCCGCAAAGTTTCGATTCCAGTTT
# B9: PDR n1 (dsDNA)
# DNA 1: AAACTGGAATCGAAACTTTGCGGCTTGCGGTGATAAAAACATTTTT
# DNA 2: AAAAATGTTTTTATCACCGCAAGCCGCAAAGTTTCGATTCCAGTTT
# B10: PDR n15 (dsDNA)
# DNA 1: AAACTGGAATCGAAACTTTGCGGCCATTACCATCTACTTTGCGGTGATAAAAACATTTTT
# DNA 2: AAAAATGTTTTTATCACCGCAAAGTAGATGGTAATGGCCGCAAAGTTTCGATTCCAGTTT
# B11: Ppel DR2 only (dsDNA)
# DNA 1: CGGCCGGTTTTTTTTTTTGCGGTCTTTGCGGTGGGAGTCTTTAGAAT
# DNA 2: ATTCTAAAGACTCCCACCGCAAAGACCGCAAAAAAAAAAACCGGCCG
# B12: Ppel IR-DR core (dsDNA)
# DNA 1: GGATTTTGCAGAATGCCGCAATAGGATAGCGGAACATTTTCGGTTCTG
# DNA 2: CAGAACCGAAAATGTTCCGCTATCCTATTGCGGCATTCTGCAAAATCC
# B13: PDR n9 (dsDNA)
# DNA 1: AAACTGGAATCGAAACTTTGCGGCCATTACCATTGCGGTGATAAAAACATTTTT
# DNA 2: AAAAATGTTTTTATCACCGCAATGGTAATGGCCGCAAAGTTTCGATTCCAGTTT
# B14: PIR n14 (dsDNA)
# DNA 1: ATGTTTAGTGGAAATGATTGCGGCATCTCCACATACCCCGCAAAAAATATTGCTGTAAAT
# DNA 2: ATTTACAGCAATATTTTTTGCGGGGTATGTGGAGATGCCGCAATCATTTCCACTAAACAT
# B15: PIR n10 (dsDNA)
# DNA 1: ATGTTTAGTGGAAATGATTGCGGCATCTCCACACCGCAAAAAATATTGCTGTAAAT
# DNA 2: ATTTACAGCAATATTTTTTGCGGTGTGGAGATGCCGCAATCATTTCCACTAAACAT
# B16: PDR n3 (dsDNA)
# DNA 1: AAACTGGAATCGAAACTTTGCGGCCATTGCGGTGATAAAAACATTTTT
# DNA 2: AAAAATGTTTTTATCACCGCAATGGCCGCAAAGTTTCGATTCCAGTTT
# B17: PIR n1 (dsDNA)
# DNA 1: ATGTTTAGTGGAAATGATTGCGGCCCGCAAAAAATATTGCTGTAAAT
# DNA 2: ATTTACAGCAATATTTTTTGCGGGCCGCAATCATTTCCACTAAACAT
# B18: Ppel DR1 only (dsDNA)
# DNA 1: CGGCCTTTTGGTTTTTTTGCGGTCTGGCTGTTGGGAGTCTTTAGAAT
# DNA 2: ATTCTAAAGACTCCCAACAGCCAGACCGCAAAAAAACCAAAAGGCCG
# B19: PDR G3T (dsDNA)
# DNA 1: AAACTGGAATCGAAACTTTGCGGCCATTTTTCGGTGATAAAAACATTTTT
# DNA 2: AAAAATGTTTTTATCACCGAAAAATGGCCGCAAAGTTTCGATTCCAGTTT
# B20: PIR C4A (dsDNA)
# DNA 1: ATGTTTAGTGGAAATGATTGCGGCATCCCGAAAAAAATATTGCTGTAAAT
# DNA 2: ATTTACAGCAATATTTTTTTCGGGATGCCGCAATCATTTCCACTAAACAT
# B21: PDR ex7 (RE4 T1C) (dsDNA)
# DNA 1: B19 DNA 1 with T29C, T31G
# DNA 2: B19 DNA 2 with A20C, A22G
# B22: PDR (perfect direct repeat) (dsDNA)
# DNA 1: B19 DNA 1 with T31G
# DNA 2: B19 DNA 2 with A20C
# B23: PIR (perfect inverted repeat) (dsDNA)
# DNA 1: B20 DNA 1 with A31C
# DNA 2: B20 DNA 2 with T20G
# Biological target: T1, ComA
# Test: EMSA; EMSA: 10 mM HEPES pH 7.6, 2 mM MgCl2, 0.1 mM EDTA, 200 mM KCl, 5 mM DTT, 10% glycerol; 10 ng DNA in 15 ul, 20 min, room temperature
# Settings: protein: recombinant; tags: N-terminal His6 (from expression primer); chain copies: 2; label: 5' biotin on strand 1; blunt
row,Binder,binding result
1,B1,no binding
2,B2,no binding
3,B3,no binding
4,B4,no binding
5,B5,no binding
6,B6,no binding
7,B7,no binding
8,B8,no binding
9,B9,no binding
10,B10,no binding
11,B11,no binding
12,B12,binds
13,B13,no binding
14,B14,no binding
15,B15,no binding
16,B16,no binding
17,B17,no binding
18,B18,no binding

# Biological target: T1, ComA
# Test: as above
# Settings: protein: recombinant; tags: N-terminal His6 (from expression primer); chain copies: 2; label: 5' biotin on strand 1; blunt
# Remark: another data set of the same source
row,Binder,binding signal [fold reduced affinity]
1,B19,~2
2,B20,~2

# Biological target: T1, ComA
# Test: as above
# Settings: protein: recombinant; tags: N-terminal His6 (from expression primer); chain copies: 2; label: 5' biotin on strand 1; blunt
# Remark: another data set of the same source
row,Binder,binding signal [fold reduced affinity]
1,B21,~2

# Biological target: T2, ComA;RNA polymerase alpha subunit
# Test: EMSA; supershift; EMSA: 10 mM HEPES pH 7.6, 2 mM MgCl2, 0.1 mM EDTA, 200 mM KCl, 5 mM DTT, 10% glycerol; 10 ng DNA in 15 ul, 20 min, room temperature
# Settings: protein: recombinant;recombinant; tags: N-terminal His6 (from expression primer);N-terminal His6 (from expression primer); label: 5' biotin on strand 1; blunt
row,Binder,binding result
1,B22,binds

# Biological target: T3, ComA;sigma factor sigmaA (Bacillus subtilis;Bacillus subtilis, UniProt P14204;P06224 1-214;1-371, |)
# Test: EMSA; supershift, lower mobility than PIR; EMSA: 10 mM HEPES pH 7.6, 2 mM MgCl2, 0.1 mM EDTA, 200 mM KCl, 5 mM DTT, 10% glycerol; 10 ng DNA in 15 ul, 20 min, room temperature
# Settings: protein: recombinant;recombinant; tags: N-terminal His6 (from expression primer);N-terminal His6 (from expression primer); chain copies: 2;1; label: 5' biotin on strand 1; blunt
row,Binder,binding result
1,B22,binds

# Biological target: T2, ComA;RNA polymerase alpha subunit
# Test: EMSA; supershift, same alpha concentration as PDR; EMSA: 10 mM HEPES pH 7.6, 2 mM MgCl2, 0.1 mM EDTA, 200 mM KCl, 5 mM DTT, 10% glycerol; 10 ng DNA in 15 ul, 20 min, room temperature
# Settings: protein: recombinant;recombinant; tags: N-terminal His6 (from expression primer);N-terminal His6 (from expression primer); label: 5' biotin on strand 1; blunt
row,Binder,binding result
1,B23,binds

# Biological target: T3, ComA;sigma factor sigmaA
# Test: EMSA; supershift, same sigmaA concentration as PDR; EMSA: 10 mM HEPES pH 7.6, 2 mM MgCl2, 0.1 mM EDTA, 200 mM KCl, 5 mM DTT, 10% glycerol; 10 ng DNA in 15 ul, 20 min, room temperature
# Settings: protein: recombinant;recombinant; tags: N-terminal His6 (from expression primer);N-terminal His6 (from expression primer); chain copies: 2;1; label: 5' biotin on strand 1; blunt
row,Binder,binding result
1,B23,binds

# Biological target: T1, ComA
# Test: EMSA; complex at 1.2 uM or more; affinity similar to PDR; EMSA: 10 mM HEPES pH 7.6, 2 mM MgCl2, 0.1 mM EDTA, 200 mM KCl, 5 mM DTT, 10% glycerol; 10 ng DNA in 15 ul, 20 min, room temperature
# Settings: protein: recombinant; tags: N-terminal His6 (from expression primer); chain copies: 2; label: 5' biotin on strand 1; blunt
row,Binder,binding result
1,B23,binds

# Biological target: T1, ComA
# Test: EMSA; complex at 1.2 uM or more; affinity similar to PIR; EMSA: 10 mM HEPES pH 7.6, 2 mM MgCl2, 0.1 mM EDTA, 200 mM KCl, 5 mM DTT, 10% glycerol; 10 ng DNA in 15 ul, 20 min, room temperature
# Settings: protein: recombinant; tags: N-terminal His6 (from expression primer); chain copies: 2; label: 5' biotin on strand 1; blunt
row,Binder,binding result
1,B22,binds
